Laboratory results as given in patent publication US20190315873A1 (AGOMAB THERAPEUTICS, published 2019).
Changes are numbered by the printed parent chain. Blank lines part the entries; values can stand above or below the molecule they belong to.

Tests used:
[1] = target: mouse MET on MLP29 mouse liver precursor cells (mouse) (UniProt P16056); experiment: cell-based or functional assay
[2] = target: human MET on A549 human lung carcinoma cells (human) (UniProt P08581); experiment: cell-based or functional assay
mouse MET ECD [3] = target: T1, mouse MET ECD (mouse, UniProt P16056 25-931); experiment: ELISA, mouse-format mAb on MET ECD
T1 construct: range 1-931; recombinant ECD; also called mMET; mouse MET extracellular domain
Procedure: (§1) In order to directly determine whether—and to what extent—the prior art agonistic anti-MET antibodies cross-reacted with mouse MET, and to compare them to our human/mouse equivalent anti-MET antibodies, we performed an ELISA assay. Since all prior art antibodies were obtained or engineered with a mouse IgG/A format, we employed the mouse IgG/A version of 71G3, 71D6 and 71G2. Human or mouse MET ECD was immobilized in solid phase (100 ng/well in a 96-well plate) and exposed to increasing concentrations of antibodies (0-40 nM) in solution. […] Among the antibodies tested, only 71G3, 71D6 and 71G2 bound to both human and mouse MET, and they did so with indistinguishable affinities and capacities.

human MET ECD [4] = target: T2, human MET ECD (human, UniProt P08581 25-932); experiment: ELISA, mouse-format mAb on MET ECD
T2 construct: range 1-932; recombinant ECD made by standard protein engineering; also called hMET; human MET extracellular domain
Procedure: as §1

mouse MET ECD [5] = target: T1, mouse MET ECD; experiment: ELISA: MET ECD immobilized (100 ng/well), mAb in human IgG1/lambda format in solution (0-40 nM), HRP anti-human Fc
Excerpt: (§2) To this end, we investigated whether our human/mouse equivalent anti-MET antibodies cross-reacted with MET from other species, including rat (Rattus norvegicus) and cynomolgus monkey (Macaca fascicularis). […] Human and mouse MET ECD were used as controls. A restricted panel of antibodies representative of both SEMA binders (71D6, 71C3, 71D4, 71A3, 71G2) and PSI binders (76H10, 71G3) was selected. The 5D5 prior art antibody was used as control. MET ECD proteins were immobilized in solid phase (100 ng/well in a 96-well plate) and exposed to increasing concentrations (0-40 nM) of antibodies (with human constant regions) in solution. […] We conclude that the 71D6, 71C3, 71D4, 71A3, 71G2, 76H10 and 71G3 antibodies bind with similar affinity and capacity to human MET, mouse MET, rat MET and simian MET, at least as determined by ELISA.

monkey MET ECD = target: T3, monkey MET ECD (cynomolgus monkey, UniProt A0A2K5UM36 25-932); experiment: as above
T3 construct: also called simian MET; cynomolgus monkey MET
Excerpt: as §2

human MET ECD [6] = target: T2, human MET ECD; experiment: as above
Excerpt: as §2

rat MET ECD (rat) = rat MET ECD (rat) (UniProt P97523); experiment: as above
[7] = target: human MET ECD mutant A (mutations 1, 2, 3) (human) (UniProt P08581); experiment: ELISA on mutant human MET ECD
[8] = target: human MET ECD mutant H (mutations 2, 4) (human) (UniProt P08581); experiment: ELISA on mutant human MET ECD
[9] = target: human MET ECD mutant D (mutations 1, 2) (human) (UniProt P08581); experiment: ELISA on mutant human MET ECD
[10] = target: human MET ECD mutant E (mutations 2, 3, 4) (human) (UniProt P08581); experiment: ELISA on mutant human MET ECD
[11] = target: human MET ECD mutant I (mutations 6, 7, 8) (human) (UniProt P08581); experiment: ELISA on mutant human MET ECD
[12] = target: human MET ECD mutant J (mutations 6, 7) (human) (UniProt P08581); experiment: ELISA on mutant human MET ECD

T3 sequence (A0A2K5UM36 entry or part of it limits assumed): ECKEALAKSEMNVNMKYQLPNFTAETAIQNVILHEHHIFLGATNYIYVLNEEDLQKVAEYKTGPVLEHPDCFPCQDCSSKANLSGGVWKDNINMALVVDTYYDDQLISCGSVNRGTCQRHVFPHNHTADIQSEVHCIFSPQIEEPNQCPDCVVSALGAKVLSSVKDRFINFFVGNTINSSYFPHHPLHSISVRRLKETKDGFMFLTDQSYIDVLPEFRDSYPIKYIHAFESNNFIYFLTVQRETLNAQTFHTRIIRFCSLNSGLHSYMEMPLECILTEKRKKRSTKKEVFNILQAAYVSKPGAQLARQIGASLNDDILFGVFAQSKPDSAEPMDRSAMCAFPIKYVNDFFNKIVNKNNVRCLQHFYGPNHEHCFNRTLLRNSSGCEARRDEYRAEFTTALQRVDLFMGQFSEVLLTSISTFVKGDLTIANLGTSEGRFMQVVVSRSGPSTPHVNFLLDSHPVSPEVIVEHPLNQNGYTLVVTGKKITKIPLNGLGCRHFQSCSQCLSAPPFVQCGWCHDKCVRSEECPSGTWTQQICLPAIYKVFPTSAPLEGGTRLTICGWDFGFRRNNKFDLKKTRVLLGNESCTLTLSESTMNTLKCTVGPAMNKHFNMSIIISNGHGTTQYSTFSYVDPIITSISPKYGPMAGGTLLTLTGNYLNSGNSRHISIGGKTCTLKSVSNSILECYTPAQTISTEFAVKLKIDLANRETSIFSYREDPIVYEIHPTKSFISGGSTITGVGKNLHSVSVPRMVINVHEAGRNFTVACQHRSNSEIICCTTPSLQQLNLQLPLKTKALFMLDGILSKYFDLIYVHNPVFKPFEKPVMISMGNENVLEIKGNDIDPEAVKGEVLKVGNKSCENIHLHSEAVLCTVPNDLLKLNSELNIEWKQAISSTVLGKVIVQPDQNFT
Sequence of rat MET ECD (rat) (P97523 25-931 limits assumed, form in doubt): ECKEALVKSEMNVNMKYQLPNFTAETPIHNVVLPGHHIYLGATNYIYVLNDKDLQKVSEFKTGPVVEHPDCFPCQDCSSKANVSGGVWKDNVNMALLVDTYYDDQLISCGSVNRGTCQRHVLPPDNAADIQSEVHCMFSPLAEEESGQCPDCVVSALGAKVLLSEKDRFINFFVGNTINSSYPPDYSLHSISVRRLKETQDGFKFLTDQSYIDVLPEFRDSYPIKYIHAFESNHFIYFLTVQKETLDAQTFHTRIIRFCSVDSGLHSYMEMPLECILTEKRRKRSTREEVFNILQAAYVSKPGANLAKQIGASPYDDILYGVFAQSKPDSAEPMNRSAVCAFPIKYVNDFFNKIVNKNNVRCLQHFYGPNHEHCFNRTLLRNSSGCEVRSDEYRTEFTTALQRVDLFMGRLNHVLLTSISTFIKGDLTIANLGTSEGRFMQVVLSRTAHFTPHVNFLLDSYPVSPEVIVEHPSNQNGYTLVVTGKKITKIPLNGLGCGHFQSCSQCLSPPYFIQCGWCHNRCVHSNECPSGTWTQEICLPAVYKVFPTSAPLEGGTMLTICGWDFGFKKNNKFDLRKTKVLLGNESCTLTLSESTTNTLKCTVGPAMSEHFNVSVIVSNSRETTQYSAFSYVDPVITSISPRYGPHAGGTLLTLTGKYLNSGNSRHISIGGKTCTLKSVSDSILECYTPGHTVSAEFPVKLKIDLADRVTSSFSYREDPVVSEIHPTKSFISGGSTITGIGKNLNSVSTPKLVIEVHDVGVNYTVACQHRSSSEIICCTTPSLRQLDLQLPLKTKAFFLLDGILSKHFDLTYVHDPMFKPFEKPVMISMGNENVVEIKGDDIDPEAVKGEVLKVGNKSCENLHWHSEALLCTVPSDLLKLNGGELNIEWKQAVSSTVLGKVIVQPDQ

Molecule: recombinant mouse HGF (from UniProt Q08048 33-728) (ligand)
phospho-MET ELISA EC50 [1]: 0.23 nM
phospho-MET ELISA EMAX (% HGF activity) [1]: 100

B1: 71C3 llama-human chimeric mAb (human IgG1/lambda) (antibody, V domains shown)
VH: QLQLVESGGGLVQPGGSLRLSCAASGFTFSSHAMSWVRQAPGKGLEWVSAINSGGGSTSYADSVKGRFTISRDNAKNTLYLQMNSLKPEDTAVYYCAKELRFDLARYTDYEAWDYWGQGTQVTVSS
VL: SYELTQPSALSVTLGQTAKITCQGGSLGSSYAHWYQQKPGQAPVLVIYDDDSRPSGIPERFSGSSSGGTATLTISGAQAEDEGDYYCQSADSSGNAAVFGGGTHLTVLQ
EC50 (read off the curve) (mouse MET ECD [5]): ~0.1 nM
EC50 (read off the curve) (monkey MET ECD): ~0.1 nM
EC50 (read off the curve) (human MET ECD [6]): ~0.1 nM
EC50 (read off the curve) (rat MET ECD (rat)): 0.3 nM
% binding (EMAX) vs WT MET ECD [7]: 99.8%
% binding (EMAX) vs WT MET ECD [8]: 61.6%
% binding (EMAX) vs WT MET ECD [9]: 102%
% binding (EMAX) vs WT MET ECD [10]: 59.6%

B2: 71A3 llama-human chimeric mAb (human IgG1/lambda) (antibody, V domains shown)
VH: EVQLVESGGGLVQPGGSLRLSCAASGFSFKDYDITWVRQAPGKGLEWVSTITSRSGSTSYVDSVKGRFTISGDNAKNTLYLQMNSLKPEDTAVYYCAKVYATTWDVGPLGYGMDYWGKGTLVTVSS
VL: B1 VL
EC50 (read off the curve) (mouse MET ECD [5]): ~0.07 nM
EC50 (read off the curve) (monkey MET ECD): ~0.1 nM
EC50 (read off the curve) (human MET ECD [6]): ~0.09 nM
EC50 (read off the curve) (rat MET ECD (rat)): 0.1 nM
% binding (EMAX) vs WT MET ECD [7]: 117%
% binding (EMAX) vs WT MET ECD [8]: 76.7%
% binding (EMAX) vs WT MET ECD [9]: 128%
% binding (EMAX) vs WT MET ECD [10]: 65.4%

B5: 71G3 llama-human chimeric mAb (human IgG1/lambda) (antibody)
heavy: QVQLVESGGGLVQPGGSLRVSCAASGFTFSTYYMSWVRQAPGKGLEWVSDIRTDGGTYYADSVKGRFTMSRDNAKNTLYLQMNSLKPEDTALYYCARTRIFPSGYDYWGQGTQVTVSSASTKGPSVFPLAPSSKSTSGGTAALGCLVKDYFPEPVTVSWNSGALTSGVHTFPAVLQSSGLYSLSSVVTVPSSSLGTQTYICNVNHKPSNTKVDKKVEPKSCDKTHTCPPCPAPELLGGPSVFLFPPKPKDTLMISRTPEVTCVVVDVSHEDPEVKFNWYVDGVEVHNAKTKPREEQYNSTYRVVSVLTVLHQDWLNGKEYKCKVSNKALPAPIEKTISKAKGQPREPQVYTLPPSRDELTKNQVSLTCLVKGFYPSDIAVEWESNGQPENNYKTTPPVLDSDGSFFLYSKLTVDKSRWQQGNVFSCSVMHEALHNHYTSEVFVPQSRKVI
light: QAVVTQEPSLSVSPGGTVTLTCGLSSGSVTTSNYPGWFQQTPGQAPRTLIYNTNSRHSGVPSRFSGSISGNKAALTIMGAQPEDEADYYCSLYPGSTTVFGGGTHLTVLQPKAAPSVTLFPPSSEELQANKATLVCLISDFYPGAVTVAWKADSSPVKAGVETTTPSKQSNNKYAASSYLSLTPEQWKSHRSYSCQVTHEGSTVEKTVAPTECS
EC50 (read off the curve) (mouse MET ECD [5]): ~0.04 nM
EC50 (read off the curve) (monkey MET ECD): ~0.04 nM
EC50 (read off the curve) (human MET ECD [6]): ~0.08 nM
EC50 (read off the curve) (rat MET ECD (rat)): 0.1 nM
% binding (EMAX) vs WT MET ECD [11]: 100%
% binding (EMAX) vs WT MET ECD [12]: 91.2%

B7: 71G2 llama-human chimeric mAb (human IgG1/lambda) (antibody)
heavy: EVQLQESGGGLVQPGGSLRLSCAASGFTFSIYDMSWVRQAPGKGLEWVSTINSDGSSTSYVDSVKGRFTISRDNAKNTLYLQMNSLKPEDTAVYYCAKVYGSTWDVGPMGYGMDYWGKGTLVTVSSASTKGPSVFPLAPSSKSTSGGTAALGCLVKDYFPEPVTVSWNSGALTSGVHTFPAVLQSSGLYSLSSVVTVPSSSLGTQTYICNVNHKPSNTKVDKKVEPKSCDKTHTCPPCPAPELLGGPSVFLFPPKPKDTLMISRTPEVTCVVVDVSHEDPEVKFNWYVDGVEVHNAKTKPREEQYNSTYRVVSVLTVLHQDWLNGKEYKCKVSNKALPAPIEKTISKAKGQPREPQVYTLPPSRDELTKNQVSLTCLVKGFYPSDIAVEWESNGQPENNYKTTPPVLDSDGSFFLYSKLTVDKSRWQQGNVFSCSVMHEALHNHYTSEVFVPQSRKVI
light: SSALTQPSALSVSLGQTARITCQGGSLGSSYAHWYQQKPGQAPVLVIYGDDSRPSGIPERFSGSSSGGTATLTISGAQAEDEDDYYCQSTDSSGNTVFGGGTRLTVLQPKAAPSVTLFPPSSEELQANKATLVCLISDFYPGAVTVAWKADSSPVKAGVETTTPSKQSNNKYAASSYLSLTPEQWKSHRSYSCQVTHEGSTVEKTVAPTECS
EC50 (read off the curve) (mouse MET ECD [5]): ~0.06 nM
EC50 (read off the curve) (monkey MET ECD): ~0.07 nM
EC50 (read off the curve) (human MET ECD [6]): ~0.1 nM
EC50 (read off the curve) (rat MET ECD (rat)): 0.1 nM
% binding (EMAX) vs WT MET ECD [7]: 92.1%
% binding (EMAX) vs WT MET ECD [8]: 40.2%
% binding (EMAX) vs WT MET ECD [9]: 114%
% binding (EMAX) vs WT MET ECD [10]: 41.4%

Other lines, results leading:

phospho-MET ELISA EC50 [2]: 0.19 nM
phospho-MET ELISA EMAX (% HGF activity) [2]: 100
Molecule: recombinant human HGF (from UniProt P14210 32-728) (ligand)

EC50 (mouse MET ECD [3]): > 40 nM
EC50 (human MET ECD [4]): 0.197 nM
EMAX (human MET ECD [4]): 3.16 OD450
Molecule: 5D5 anti-human MET antibody, mouse IgG1/lambda format

EC50 (read off the curve) (mouse MET ECD [5]): ~0.2 nM
EC50 (read off the curve) (monkey MET ECD): ~0.1 nM
EC50 (read off the curve) (human MET ECD [6]): ~0.2 nM
EC50 (read off the curve) (rat MET ECD (rat)): 0.2 nM
% binding (EMAX) vs WT MET ECD [7]: 114%
% binding (EMAX) vs WT MET ECD [8]: 58.7%
% binding (EMAX) vs WT MET ECD [9]: 120%
% binding (EMAX) vs WT MET ECD [10]: 57.2%
B3: 71D4 llama-human chimeric mAb (human IgG1/lambda) (antibody, V domains shown)
VH: B1 VH with Q1E, S31G, H32Y, A33G, A50D, E99D, L100M, F102L, D103Y, T108N
VL: B1 VL with Y2S, E3A

EC50 (mouse MET ECD [3]): > 40 nM
EC50 (human MET ECD [4]): 0.067 nM
EMAX (human MET ECD [4]): 3.06 OD450
B4: DN-30 mouse anti-human MET antibody (antibody, from another filing, V domains shown)
VH: QVQLQQPGTELVKPGASVKLSCKASGYTFTSYWIHWVKQRPGQGLEWIGEINPSSGRTNYNEKFKNKVTVTVDKSSTTAYMQLSNLTSEDSAVYYCASRGYWGQGTTLTVSS
VL: DIVLTQSPASLAVSLGQRATISCKASQSVDYDGGSYMSWFQQRPGQPPKLLISAASNLESGIPARFSGSGSGTDFTLNIHPVEEEDVATYYCQQSYEDPLTFGAGTKLELKR

EC50 (read off the curve) (mouse MET ECD [5]): ~0.1 nM
EC50 (read off the curve) (monkey MET ECD): ~0.1 nM
EC50 (read off the curve) (human MET ECD [6]): ~0.1 nM
EC50 (read off the curve) (rat MET ECD (rat)): 0.1 nM
% binding (EMAX) vs WT MET ECD [7]: 103%
% binding (EMAX) vs WT MET ECD [8]: 38.6%
% binding (EMAX) vs WT MET ECD [9]: 128%
% binding (EMAX) vs WT MET ECD [10]: 43.6%
B6: 71D6 llama-human chimeric mAb (human IgG1/lambda) (antibody)
heavy: ELQLVESGGGLVQPGGSLRLSCAASGFTFSSYGMSWVRQAPGKGLEWVSAINSYGGSTSYADSVKGRFTISRDNAKNTLYLQMNSLKPEDTAVYYCAKEVRADLSRYNDYESYDYWGQGTQVTVSSASTKGPSVFPLAPSSKSTSGGTAALGCLVKDYFPEPVTVSWNSGALTSGVHTFPAVLQSSGLYSLSSVVTVPSSSLGTQTYICNVNHKPSNTKVDKKVEPKSCDKTHTCPPCPAPELLGGPSVFLFPPKPKDTLMISRTPEVTCVVVDVSHEDPEVKFNWYVDGVEVHNAKTKPREEQYNSTYRVVSVLTVLHQDWLNGKEYKCKVSNKALPAPIEKTISKAKGQPREPQVYTLPPSRDELTKNQVSLTCLVKGFYPSDIAVEWESNGQPENNYKTTPPVLDSDGSFFLYSKLTVDKSRWQQGNVFSCSVMHEALHNHYTSEVFVPQSRKVI
light: QPVLNQPSALSVTLGQTAKITCQGGSLGARYAHWYQQKPGQAPVLVIYDDDSRPSGIPERFSGSSSGGTATLTISGAQAEDEGDYYCQSADSSGSVFGGGTHLTVLQPKAAPSVTLFPPSSEELQANKATLVCLISDFYPGAVTVAWKADSSPVKAGVETTTPSKQSNNKYAASSYLSLTPEQWKSHRSYSCQVTHEGSTVEKTVAPTECS
